± gives the uncertainty stated by the source.
Assay: self-splicing fitness, log relative to wild type (ln ratio); higher = more splicing; Tetrahymena group I intron in knt gene, E. coli kanamycin selection, DiMSum; sequences stand for … in CUCUCU…GGAGGGAAAAGUUAUCAGGCAUGCACCUGGUAGCUAGUCUUUAAACCAAUAGAUUGCAUCGGUUUAAAAGGCAAGACCGUCAAAUUGCGGGAAAGGGGUCAACAGCCGUUCAGUACCAAGUCUCAGGGGAAACUUUGAGAUGGCCUUGCAAAGGGUAUGGUAAUAAGCUGACGGACAUGGUCCUAACCACGCAGCCAAGUCCUAAGUCAACAGAUCUUCUGUUGAUAUGGAUGCAGUUCACAGACUAAAUGUCGGUCGGGGAAGAUGUAUUCUUCUCAUAAGAUAUAGUCGGACCUCUCCUUAAUGGGAGCUAGCGGAUGAAGUGAUGCAACACUGGAGCCGCUGGGAACUAAUUUGUAUGCGAAAGUAUAUUGAUUAGUUUUGGAGUACUCGUGGUCG
Summary of the method: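 A randomised library covering all eight P1ex-region intron nucleotides was built with the intron in the knt kanamycin-resistance gene on pET-22b(+) and held in E. coli BL21(DE3). Cells were grown overnight at 37°C or 30°C on LB agar, with or without 25 μg/mL kanamycin, plus 100 μg/mL carbenicillin, 50 μM IPTG and 0.2% rhamnose, and pooled colonies were amplicon-sequenced on an Illumina HiSeq 2500. DiMSum fitness is the error-weighted combination of wild-type-normalised replicate fold changes, kanamycin versus none.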

Sequence	self-splicing fitness (ln) (30 °C)	self-splicing fitness (ln) (37 °C)
CCGAAGCAAUAUUACGCGAC	-3.1 ± 0.2	-1.48 ± 0.19
CCUGAGCAAUAUUACGCAAA	-2.19 ± 0.26	-2.42 ± 0.28
ACAGAGCAAUAUUACGGUUA	-2.77 ± 0.21	-3.05 ± 0.33
UGCUAGCAAUAUUACGGGGU	-2.82 ± 0.21	-2.09 ± 0.21
GUCCAGCAAUAUUACGGUAG	-2.08 ± 0.083	-1.61 ± 0.096
GGUCAGCAAUAUUACGAUGU	-0.0366 ± 0.056	0.261 ± 0.076
CGACAGCAAUAUUACGAUGU	-2.74 ± 0.15	-2.59 ± 0.18
CCUUAGCAAUAUUACGGAGA	-3.46 ± 0.37	-2.41 ± 0.42
AUGAAGCAAUAUUACGGAAC	-0.855 ± 0.098	-1.24 ± 0.15
UGGAAGCAAUAUUACGGGGU	-3.12 ± 0.31	-1.99 ± 0.35
GGCCAGCAAUAUUACGCUCA	-0.637 ± 0.13	-0.183 ± 0.13
ACGGAGCAAUAUUACGUUUA	-3.14 ± 0.2	-2.68 ± 0.21
UAAGAGCAAUAUUACGAGGA	-3.37 ± 0.29	-2.25 ± 0.35
GAGAAGCAAUAUUACGUAAG	-2.72 ± 0.15	-1.1 ± 0.15
UUAUAGCAAUAUUACGUAAG	-1.38 ± 0.08	-0.386 ± 0.11
UCGAAGCAAUAUUACGCGCA	0.425 ± 0.26	-0.635 ± 0.21
GACGAGCAAUAUUACGUCCA	-2.11 ± 0.32	-2.68 ± 0.31
GGCAAGCAAUAUUACGCCUC	-2.03 ± 0.13	-1.34 ± 0.12
UUCAAGCAAUAUUACGAGCG	-1.3 ± 0.087	-0.359 ± 0.099
UGUAAGCAAUAUUACGUCUG	-0.606 ± 0.07	0.32 ± 0.093
GGGCAGCAAUAUUACGCCUU	-3.55 ± 0.29	-2.13 ± 0.22
CAGGAGCAAUAUUACGUACU		-2.97 ± 0.38
GUCCAGCAAUAUUACGAGCC	-1.18 ± 0.15	-0.519 ± 0.16
UGUCAGCAAUAUUACGCUGC	-3.54 ± 0.43	-0.934 ± 0.25
AAGCAGCAAUAUUACGUGCC	-1.23 ± 0.11	-1.47 ± 0.12
CCGCAGCAAUAUUACGAAUG	-1.2 ± 0.063	-0.305 ± 0.065

Sequence	self-splicing fitness (ln) (30 °C)	self-splicing fitness (ln) (37 °C)
CACCAGCAAUAUUACGCACA	-1.23 ± 0.16	-0.504 ± 0.14
CCGUAGCAAUAUUACGUGCU		-1.98 ± 0.19
AUUGAGCAAUAUUACGAGCU	-3.6 ± 0.37	-1.63 ± 0.37
GAUUAGCAAUAUUACGCCCC	-1.52 ± 0.46	-0.314 ± 0.48
GCCUAGCAAUAUUACGGAUC	-0.351 ± 0.12	-0.096 ± 0.16
GGUGAGCAAUAUUACGAGAC	-2.82 ± 0.33	-2.01 ± 0.46
CAAGAGCAAUAUUACGCGAU	-2.62 ± 0.22	-2.51 ± 0.49
CGUGAGCAAUAUUACGGGCC	-1.9 ± 0.32	
UCCCAGCAAUAUUACGCAUA	-1.47 ± 0.16	-1.27 ± 0.15
CUCUAGCAAUAUUACGUGUA	-3.62 ± 0.21	-4.02 ± 0.27
CUCUAGCAAUAUUACGCGGC	-2.81 ± 0.3	-2.45 ± 0.3
GGGUAGCAAUAUUACGGUCA	0.229 ± 0.18	-0.659 ± 0.18
CUGCAGCAAUAUUACGGGCA	-3.01 ± 0.17	-1.06 ± 0.14
CUCGAGCAAUAUUACGAUGA	-2.19 ± 0.19	-1.36 ± 0.2
UUAUAGCAAUAUUACGUGAG	-1.2 ± 0.087	-0.672 ± 0.12
AAGUAGCAAUAUUACGGACG	-2.73 ± 0.18	-1.74 ± 0.2
GUAGAGCAAUAUUACGAGCU	-2.67 ± 0.22	-1.66 ± 0.23
AUCCAGCAAUAUUACGAGCA	-1.14 ± 0.14	-1.1 ± 0.11
CGUCAGCAAUAUUACGGUGG	-1.26 ± 0.071	-0.629 ± 0.096
CGUGAGCAAUAUUACGUGGU	-3.02 ± 0.17	-2.42 ± 0.22
GCUCAGCAAUAUUACGCUGG	-2.98 ± 0.16	-2.27 ± 0.22
CGGGAGCAAUAUUACGCAGC	-3.21 ± 0.24	-2.72 ± 0.43
AGACAGCAAUAUUACGUUCA	-0.336 ± 0.056	-0.159 ± 0.086
ACACAGCAAUAUUACGAAUG	-2.63 ± 0.1	-1.08 ± 0.084
GAGUAGCAAUAUUACGCCUC	-2.22 ± 0.24	-3.01 ± 0.47
CACUAGCAAUAUUACGUCAA	-3.77 ± 0.22	-2.27 ± 0.14

Sequence	self-splicing fitness (ln) (30 °C)	self-splicing fitness (ln) (37 °C)
GGGAAGCAAUAUUACGAUCC	-2.12 ± 0.22	-1.11 ± 0.35
GUGAAGCAAUAUUACGUGUA	-1.11 ± 0.069	-0.878 ± 0.087
GGCUAGCAAUAUUACGACUA	-0.758 ± 0.091	-0.454 ± 0.089
CAUAAGCAAUAUUACGUCUC	-3.68 ± 0.3	-2.52 ± 0.29
UAAUAGCAAUAUUACGACCG	-0.0649 ± 0.15	0.638 ± 0.17
GGUUAGCAAUAUUACGACUG	-0.729 ± 0.1	-0.796 ± 0.12
UGGAAGCAAUAUUACGUCUU	-0.99 ± 0.11	-0.129 ± 0.13
CGUUAGCAAUAUUACGCAGA	-3.21 ± 0.41	-2.31 ± 0.23
ACUUAGCAAUAUUACGUGUU	-3.22 ± 0.16	-1.5 ± 0.12
CCGGAGCAAUAUUACGGUAC	-2.73 ± 0.22	-2.25 ± 0.4
UAACAGCAAUAUUACGCCGU	-3.54 ± 0.24	-1.94 ± 0.19
CAUCAGCAAUAUUACGUAGU	-1.66 ± 0.04	-0.682 ± 0.06
AUGAAGCAAUAUUACGUGCA	-0.0826 ± 0.093	0.364 ± 0.11
GCCUAGCAAUAUUACGUCUC	-0.71 ± 0.064	-0.518 ± 0.086
GCGCAGCAAUAUUACGGCUU	0.000989 ± 0.11	0.531 ± 0.15
AGGAAGCAAUAUUACGGUUC	-2.78 ± 0.21	-2.24 ± 0.2
AUCCAGCAAUAUUACGCCAA	-2.78 ± 0.22	-1.71 ± 0.18
AAUAAGCAAUAUUACGAGAU	-3.82 ± 0.2	-2.24 ± 0.21
AUGAAGCAAUAUUACGGCUC	-0.602 ± 0.12	0.254 ± 0.13
UCAAAGCAAUAUUACGUCGA	-0.83 ± 0.077	-0.792 ± 0.081
UUGUAGCAAUAUUACGCCUA	-0.297 ± 0.12	0.0606 ± 0.13
CAUCAGCAAUAUUACGUCCG	-0.619 ± 0.059	0.497 ± 0.088
AUGGAGCAAUAUUACGAUCA		-1.09 ± 0.25
AUAUAGCAAUAUUACGAGUA	-2.18 ± 0.2	-1.04 ± 0.16

Reference: the supplement of paper PMC7877785
